From patent US20060281899A1, “Mutants of biotin binding protein” (priority 2002, published 2006)
pKd: −log10 of the molar value. Where “and” joins values, the source holds several entries; their conditions need not be identical. Identical values can stand only once. Like-named read-outs stand apart in the source and are kept apart here. Values belong to the substance of their own block, whether it stands above or below them.

Assays:
[1] = cited from earlier work; for ΔTm: change in Tm upon biotin addition, previously published values; for DSC Tm (+biotin) / DSC Tm(−biotin): previously published (Nordlund 2003; Gonzalez 1999)
[2] = Differential scanning calorimetry of the avidin mutants; assay type: physicochemical; conditions: for Tm: DSC, 100 mM Na-phosphate buffer pH 7.4
Method: In order to study the thermal stability of the purified avidin mutants, they were subjected to analysis by differential scanning calorimetry. A Nano II differential scanning calorimeter (Calorimetric Science Corporation, Provo, Utah) was used. […] The reference cell was filled with the same buffer that the sample proteins were dissolved in (100 mM Na-phosphate buffer pH 7.4). The thermograms were recorded as a function of temperature, between 25 and 130° C. at a temperature scan rate of 55.6° C./h. The baselines were subtracted and the transition midpoints (Tm) of the samples were calculated using proprietary software provided by the instrument manufacturer.

[3] = IAsys optical biosensor, affinity of avidin and avidin mutants towards 2-iminobiotin; assay type: binding
Method: (§1) Reversibility of biotin binding was measured for avidin and the mutants with an IAsys optical biosensor (Laitinen, O. H. et al., FEBS Lett 461 (1999), 52-8). Protein samples were allowed to bind to a biotin-aminosilane cuvette in PBS containing 1 M NaCl. After the equilibrium was reached, biotin-containing buffer was added and the dissociation of the proteins was monitored. The affinities of the proteins towards 2-iminobiotin were determined with an IAsys optical biosensor (Marttila, A. T. et al. FEBS Lett 441 (1998), 313-7). Biotin-binding activity of the mutants Avd-ci and Avd-ccci after heat treatment was studied with a microtiter plate assay. Protein samples, 5 μg/ml concentration in PBS, were heated for various time periods at 99.9° C. and then chilled on ice. The samples were transferred to a Nunc Maxisorp-plate and incubated at 37° C. for 2 h. The wells were washed three times with PBS-Tween (0.05% v/v). After that the wells were blocked with PBS containing 1% BSA at 37° C. for 30 minutes and washed again with PBS-Tween. Next, biotinylated alkaline phosphatase (Sigma) in PBS, 1% BSA was added and incubated at 37° C. for one hour. Once again, the wells were washed with PBS-Tween and the PNPP substrate in DEA buffer (1 mg/ml) was applied to the wells. The absorbances at 405 nm were measured after incubation for 45 minutes.

[4] = 2-iminobiotin surface; from Nordlund 2003; read-out: Kd detected from the equilibrium response data; cited from earlier work
[5] = test system: biotinylated alkaline phosphatase; assay: Microtiter plate assay, biotin-binding activity after heat treatment at 99.9° C.; assay type: physicochemical; conditions: 99.9° C. for various time periods
Method: as §1, with “After that the wells were blocked with PBS containing 1% BSA at 37° C. for 30 minutes and washed again with PBS-Tween. Next, biotinylated alkaline phosphatase (Sigma) in PBS, 1% BSA was added and incubated at 37° C. for one hour. Once again, the wells were washed with PBS-Tween and the PNPP substrate in DEA buffer (1 mg/ml) was applied to the wells.” left out
Biotin-binding activity of the proteins after heat treatment was studied with a microtiter plate assay (Nordlund, H. R., Laitinen, O. H., Uotila, S. T., Nyholm, T., Hytönen, V. P., Slotte, J. P. & Kulomaa, M. S. (2003) J. Biol. Chem. 278, 2479-2483). […] The absorbencies at 405 nm were measured after incubation for 45 minutes.

[6] = Microparticle analysis, BF523-biotin binding of protein-coated particles before and after 95° C.; assay type: physicochemical; conditions: 30 minutes at 95° C., BF523-biotin added after treatment (iv)
Method: Before the analysis, 3.22 μm microparticles with COOH-group/0.852 nm2 (Bangs laboratories, Fishers, Ind., USA) were covalently coated with biotin-binding proteins. Microparticles (1*108 pcs) were washed twice with H20 by sequential centrifuging (5000 g; 3 min) and aspiration, and resuspended in 200 μl PB buffer (50 mM NaH2PO4-HCl, pH 3.0). A solution of biotin binding protein (50 μl, 1 mg/ml or 3 mg/ml, 50 mM Na-acetate pH 4.0) was added while vortexing. The suspension was incubated for 1 h (500 rpm; 23° C.). Particles were washed with PB and with MES buffer (50 mM, pH 5.5) and suspended in MES buffer (200 μl). […] After the last wash particles were suspended in 100 μl volume and concentration of particles was determined with Multisizer 3 Coulter Counter (Beckman Coulter, Fullerton, Calif., USA). […]
Microparticles (5*106 pcs) were suspended in 900 μl of assay buffer and aliquoted in […] PCR-tubes (i-v; 180 μl/aliquot). […] The samples were measured with ArcDia TPX PlateReader (ArcDia Ltd.) (Soini, E., Meltola, N. J., Soini, A. E., Soukka, J., Soini, J. T. & Hanninen, P. E. (2000) Biochem. Soc. Trans. 28, 70-74). […]
The fluorescence emission efficiencies of the BF523-biotin conjugate (200 nM) was determined before and after the incubation (30 min) at 95° C. […]

[7] = + biotin, difference in Tm compared to wt avidin + biotin
[8] = + biotin (biotin:avidin molar ratio 3:1)
[9] = without biotin, difference in Tm compared to wt avidin

Substance: Streptavidin: Bacterial streptavidin (SEQ ID NO 2), literature values [reference compound]
- ΔTm [1]: 36.7 °C
- ΔH of unfolding ([1]; previously published (Gonzalez 1999)): 150.3 kcal/mol
- DSC Tm (+biotin) [1]: 112.2 °C
- DSC Tm(−biotin) [1]: 75.5 °C

- pKd [3]: 6.72
Substance: Avd-nc: Cysteineless avidin mutant C4A, C83Y; intramonomeric disulphide bridges removed
- ΔTm [2, 7]: 0.3 °C
- Tm [2, 8]: 118.5 ± 0.1 °C
- Tm ([2]; without biotin): 76.4 ± 0.4 °C
- ΔTm [1]: 42.1 °C
- DSC Tm (+biotin) [1]: 118.5 ± 0.1 °C
- DSC Tm(−biotin) [1]: 76.4 ± 0.4 °C
- pKd [4]: 7.60

- pKd [3]: 7.07
Substance: Avd-ci: Avidin mutant I117C with two intermonomeric disulphide bridges (subunits 1-3 and 2-4)
- ΔTm [2, 7]: 6.5 °C
- Tm [2, 8]: 124.7 ± 0.5 °C
- Tm ([2]; without biotin): 98.6 ± 0.1 °C
- ΔTm [2, 9]: 13.1 °C
- biotin-binding activity after heat treatment [5]: remained active, in the sense of binding biotin, longer than the wild-type avidin
- original signal after heat treatment of coated particles [6]: 35%
- ΔTm [1]: 26.1 °C
- DSC Tm (+biotin) [1]: 124.7 ± 0.5 °C
- DSC Tm(−biotin) [1]: 98.6 °C and 98.6 ± 0.1 °C
- pKd [4]: 6.72

- pKd [3]: 7.03
Substance: Avd-cci: Avidin mutant D86C, I106C with four intermonomeric disulphide bridges (1-4 and 2-3)
- ΔTm [2, 7]: −0.7 °C
- Tm [2, 8]: 117.5 ± 0.1 °C
- Tm ([2]; without biotin): 74.4 ± 0.1 °C
- ΔTm [2, 9]: −11.1 °C
- ΔTm [1]: 43.1 °C
- DSC Tm (+biotin) [1]: 117.5 ± 0.1 °C
- DSC Tm(−biotin) [1]: 74.4 ± 0.1 °C
- pKd [4]: 7.03
